± gives the half width of the 95% confidence interval.
Key:
[1] = folding stability dG unfold from trypsin proteolysis; higher = more stable
Summary of the method: (§1)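 Unfolding free energy was derived, per protease or combined, against a sequence-predicted unfolded-state K50 and a shared folded-state K50, starting from K50 inferred by Bayesian fitting of sequencing counts. Digestion with trypsin and chymotrypsin was carried out on designed mini-proteins under 80 residues without cysteine in a PA-tagged cDNA display construct. Only designs with AlphaFold2 dimer inter-PAE above 15 were kept.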

[2] = folding stability dG unfold from chymotrypsin proteolysis; higher = more stable
Summary of the method: as §1

[3] = folding stability dG unfold (combined trypsin and chymotrypsin); higher = more stable
Summary of the method: as §1

Sequence | folding stability dG unfold [1] [kcal/mol] | folding stability dG unfold [2] [kcal/mol] | folding stability dG unfold [3] [kcal/mol]
SDKVEIWIPIPDGFWVRIKYDKPGKREITIWMPEDNPEFRKHGSMDQFIKHLARKLGLDPDKVKVDMYPMSA [r9_401_TrROS] | 3.13 ± 0.1 | 4.11 ± 0.098 | 3.69 ± 0.14
SAGGSAGGSAVPFVLPDGYVLEVEPDPETGLYRIRVTSPDGRTYEFTAPPDVPLADIPVVIDDSAGGSAGGS [r12_261_TrMRF] | 2.89 ± 0.059 | 2.96 ± 0.034 | 2.95 ± 0.053
SAGMVIKVEVIYNGKKYTIEISEEQLKELLEKLKPGDEVEIEINGEKVLVRVEVVEPPEPSEEELKALKSAG [r5_669_TrROS_Hall] | 0.944 ± 0.087 | 2.1 ± 0.2 | 1.69 ± 0.24
SAGGSAGGSAGVPDNAKIRLAFEFDGYIVLIEATPGTGFIKNIDKVEVFPVIPNTGEVTGSAGGSAGGSAGG [r11_66_TrMRF] | 1.53 ± 0.07 | 1.85 ± 0.1 | 1.79 ± 0.13
SAGGSAGGSAGVPSLEEVLAELEANPNSDAVVELPDGTRVRIRVERLPGGELRVEREEVLSAGGSAGGSAGG [r11_300_JUSTAS] | 1.21 ± 0.029 | 1.78 ± 0.049 | 1.6 ± 0.078
SAGGKKKKIKPKEIKVRIIIEKDGKKIEIELSEEELEKIKKAPTLEEIIKELEKKGFKIVKIEIEKKSAGGS [r16_567_TrROS_Hall] | 1.19 ± 0.073 | 3.05 ± 0.059 | 2.43 ± 0.21
SAGGSAGGSAGGGKKKVTVEFVIKVPKNSKPVFFTIKGGIKVEFYPIPDTNYALVKVTFGSAGGSAGGSAGG [r7_796_TrMRF] | 2.46 ± 0.19 | 3.92 ± 0.12 | 3.52 ± 0.15
SAGGSAGGSAMKKVTITLLDPRNGKEHTVTLPADITEEEAKAAAEAVAAERGWEVLSIEFEPSAGGSAGGSA [r18_322_JUSTAS] | 3.61 ± 0.072 | 3.43 ± 0.1 | 3.57 ± 0.071
SAGGGKTVEVTIEVPGENAVVYIKVYDKDKPISVFPAEFIPPTGTATFTIDVPEDAEITAEVALPEEASAGG [r13_977_TrMRF] | 0.106 ± 0.033 | 0.904 ± 0.14 | 0.687 ± 0.091
SAGGSAGGSIFIHWTYEMEHERDPDDPDEPRMKMKIKDWVISIPEDDPDKLKELADKLGIPIISAGGSAGGS [r12_249_TrROS] | 0.577 ± 0.087 | 1.69 ± 0.068 | 1.24 ± 0.11
SAGGSAGGSSVEVTEDPSTGKLTVTVPPDLTSVTIKEKDKTITIPLPPGASITLPSGTVTVALSAGGSAGGS [r20_26_JUSTAS] | 1.56 ± 0.059 | -0.168 ± 0.1 | 0.935 ± 0.1
SAGGKKKKKKKKKKKKKVKVRVRIVVENKNGEKKEIEIELKGLTLEELKKLAKELEKKGFKVKKIEIESAGG [r13_227_TrROS_Hall] | 3.28 ± 0.3 | 3.53 ± 0.16 | 3.34 ± 0.39
SAGKKSTLTIDLPGSTVTLTYDPATGKVRITVNLGVAVAGIDPETGKPGIVTGSVTLEADIDVPPGAPISAG [r5_195_TrMRF] | 2.61 ± 0.16 | 2.68 ± 0.057 | 2.65 ± 0.15
SAGGSAGGSPGTLIEVRFPDRIVRIYQLPPGVYRVEVYEPPYLVATIELPNVTAEEAARLALGSAGGSAGGS [r20_8_TrMRF] | 1.61 ± 0.034 | 3.071 ± 0.021 | 2.72 ± 0.054
SAGGKKKKVIIVIEAPPGMSAEEIAAAIAEKLGLPKEEIKVERFKSVEEALAAAEKEGKEVIVIEVDSAGGS [r8_245_TrROS_Hall] | 2.06 ± 0.053 | 2.56 ± 0.059 | 2.41 ± 0.096
SGNGEVEVEINIRIVIEPWDPNGEPDPVPIAEIPIKAEYDANDPEAVDFAVLDILDLLAPENPGYRIHIESA [r9_1112_TrROS] | 1.11 ± 0.067 | 0.379 ± 0.047 | 0.731 ± 0.062
SAGGGSMAASSVTSEEKPLPDGSSLSIPEITRPDNVATLTVEYYDPKTGTKYTFTLTIPISPDDTVTLSAGG [r13_190_JUSTAS] | 1.79 ± 0.086 | 1.97 ± 0.06 | 1.99 ± 0.15
SAGGSAGGSAGMKPGETYLVRIRVKVDGKWYEKEVKFKSLEELKKAGIENIEEIEIRKLPSAGGSAGGSAGG [r17_290_TrROS_Hall] | 1.99 ± 0.033 | 2.72 ± 0.075 | 2.47 ± 0.16
SAGGSQEELAKQLAEELAKKEGLKEVKVSITPSPGPVLNITFEFYDENGNKKGVKSKTIPLPPDLLSAGGSA [r2_153_JUSTAS] | 1.06 ± 0.11 | 0.0811 ± 0.15 | 0.515 ± 0.53
SAGGSSSSTSTRIDPTTGEWVTSTSSFPVPPAPPYIEVRLDVPPEEAEALREKLLAEHPDLPVRLEASAGGS [r8_437_JUSTAS] | 0.336 ± 0.023 | 0.74 ± 0.029 | 0.636 ± 0.072
SAGGSAGGSAGMETTDSVITYPDGSVVTVTTLPDGTTRVTTFYPESGLTEEEIVPAAELGSAGGSAGGSAGG [r11_1015_JUSTAS] | 1.8 ± 0.086 | 2.56 ± 0.1 | 2.19 ± 0.086

Sequence | folding stability dG unfold [1] [kcal/mol] | folding stability dG unfold [2] [kcal/mol] | folding stability dG unfold [3] [kcal/mol]
SAGGSAGGSAGGSSKVIEVNGYKITVTDNSVEIYNKKTGKKITVNADNPEVQELLKKLLSAGGSAGGSAGGS [r4_353_TrROS_Hall] | 3.6 ± 0.089 | 4.254 ± 0.037 | 4.07 ± 0.094
SYSTSTVTVPVAADEIDKAKEIAKELAEKLPPNSRVTFNMPAPDGSTFTVEVTVNPDGTITVTVSDSLPAVS [r1_350_JUSTAS] | 1.55 ± 0.041 | 0.986 ± 0.13 | 1.34 ± 0.087
SKAEIVEIKIEKVEKDGKKYYKVKIKVKTKDGKIKEIEITFPEGMSEEEIKKKIEELAKELGIEKVEIKPSA [r9_1203_TrROS_Hall] | 3.76 ± 0.44 | 4.7 ± 0.24 | 4.53 ± 0.67
SAGGSAGGSPIKIEFPPGIKEIEPIENDPNKTIMFRFPDYLVRIRINPKNGKIDIEIVPPGDMSAGGSAGGS [r12_858_TrROS] | 1.94 ± 0.028 | 1.9 ± 0.027 | 1.82 ± 0.11
SAGGSAGGSVIPYFDENAVALLVKGPGDYYRIIFKPNDGYLVLLLPKEVIKSKPIPIGELLKKSAGGSAGGS [r20_90_TrMRF] | 0.672 ± 0.11 | 1.33 ± 0.38 | 0.948 ± 0.43
SAGGSAGGMKVKIKLGPGEEVEIEVVEDKETNKLYFKIVNKKTKKVYVFETLEEAKNMSLEELLSAGGSAGG [r6_739_TrROS_Hall] | 1.78 ± 0.065 | 3.73 ± 0.07 | 3.22 ± 0.12
SAGGSAGGSAMLRIRFENGLEIEIPKDMTLEELKKLAEELAEELKKEGKEVEVKIVEIEPVPSAGGSAGGSA [r18_213_TrROS_Hall] | 1.65 ± 0.044 | 2.21 ± 0.029 | 2.03 ± 0.075
SAGGSAGMMPTKITVTLTLPPDAPDVEAVAERLAAELGVEVSNAEVLEVRRLPDGSREVVIELTLLSAGGSA [r15_654_JUSTAS] | 4.2 ± 0.18 | 4.18 ± 0.094 | 4.17 ± 0.1
SAGGSAPFVPPGFVKSVEEFEVTFPDGSKYRVTLIEVDGGPLVLVEKPGVGEPKTLPFEKLLELLASAGGSA [r15_329_TrMRF] | 1.88 ± 0.11 | 1.36 ± 0.075 | 1.73 ± 0.13
SAGGSAGGMVISLPNNYKIKLGITDAEFDEVKVYTGPNGPKKLVSGANIKLKIGISIYKSNDNSSAGGSAGG [r6_585_TrMRF] | 1.24 ± 0.036 | 1.43 ± 0.19 | 1.4 ± 0.17
SAGGSAGGSMPKKTYEFEIEYEDPEEAVEKAIREFEEETGEKIEEVEVEYDPEKGIVKITLVKSAGGSAGGS [r12_265_JUSTAS] | 0.921 ± 0.066 | 1.44 ± 0.088 | 1.27 ± 0.21
SAGGSAMTPEEARARAEAIAEELAAEARAAGRAAEVTVEVTELPPELYRFTITFPGRTREVLLPVESAGGSA [r15_432_JUSTAS] | -0.18 ± 0.18 | -0.262 ± 0.15 | -0.16 ± 0.13
SAGGSAGGSAGKPKTLEVEMLVLDPETRRLYRVRMEIVLDPEDEGKLTIRLEIEELELPDSAGGSAGGSAGG [r17_241_TrROS_Hall] | 3.42 ± 0.081 | 4.5 ± 0.096 | 4.27 ± 0.14
SAGGMKITITYDKETKTITVKITYPDGTTEELTIEVPPEKKTPEEIAEELKKLIEERFGKKVEIEIVSAGGS [r8_166_TrROS_Hall] | 3.82 ± 0.26 | 2.45 ± 0.18 | 2.98 ± 0.15
SAMKPKEVVIEISVEELRKLAKELFPEKELTLEELKNLVKELLEKLGIKVKKVEIVKVDPEKKRIVIKVSAG [r14_303_TrROS_Hall] | 2.77 ± 0.15 | 1.72 ± 0.083 | 2.02 ± 0.21
SAENGKWVEVELPIEIWMGNDQLDNFIEEARDIARKHGFEITDIPIKYEPSPDGYRRATIPVKITVPLPSAG [r14_109_TrROS] | 1.06 ± 0.04 | 1.06 ± 0.088 | 1.13 ± 0.14
SAGGSAGGSAGGSNIEVHYFPDGAIVMTIREPNGWYIKIVARIPPDGNIKITEIELFPMSAGGSAGGSAGGS [r4_246_TrROS] | 3.24 ± 0.11 | 3.78 ± 0.11 | 3.49 ± 0.2
SAGPYVMIRIKWPGGEELSIPIPGAKITDVERDGDHITFMFDSPPAAEDIKEEIEDHFPGLKIEIQPIDSAG [r5_453_TrROS] | 0.288 ± 0.16 | 1.17 ± 0.2 | 0.881 ± 0.14
MKVEIVEVEYDEETKRVRVKLKVDGKLVEIEFDLESGKVTVRIYEDGEEIEIEAESVEDALEKAKELVKEKS [r1_177_TrROS_Hall] | 2.02 ± 0.2 | 1.69 ± 0.12 | 1.93 ± 0.28
SAGGSAGGEKPVVTRLELVETEEGLVRLRVELPDGELVEERRFPTLEEALAALPPGAKVEIVPLSAGGSAGG [r6_492_TrROS_Hall] | 1.85 ± 0.032 | 1.54 ± 0.01 | 1.7 ± 0.032
SAGGSAGGTATLVLPAAAFPSRPDGSLGLEEIRDVARPIAQEAFGTDDITLDVESHPDGFVTITFSSAGGSA [r15_562_TrMRF] | 0.642 ± 0.027 | 0.197 ± 0.17 | 0.519 ± 0.072
